From patent publication US9549967B2, “Regulation of sodium channels by PLUNC proteins” (The University of North Carolina at Chapel Hill, priority 2009, dated 2017)

T1: αβγENaC (Rattus norvegicus, UniProt P37089+P37090+P37091)
T1 construct: expressed in transfected cells; host or cells: Xenopus laevis oocytes (cRNA injection)
T1 sequence (P37089 1-698): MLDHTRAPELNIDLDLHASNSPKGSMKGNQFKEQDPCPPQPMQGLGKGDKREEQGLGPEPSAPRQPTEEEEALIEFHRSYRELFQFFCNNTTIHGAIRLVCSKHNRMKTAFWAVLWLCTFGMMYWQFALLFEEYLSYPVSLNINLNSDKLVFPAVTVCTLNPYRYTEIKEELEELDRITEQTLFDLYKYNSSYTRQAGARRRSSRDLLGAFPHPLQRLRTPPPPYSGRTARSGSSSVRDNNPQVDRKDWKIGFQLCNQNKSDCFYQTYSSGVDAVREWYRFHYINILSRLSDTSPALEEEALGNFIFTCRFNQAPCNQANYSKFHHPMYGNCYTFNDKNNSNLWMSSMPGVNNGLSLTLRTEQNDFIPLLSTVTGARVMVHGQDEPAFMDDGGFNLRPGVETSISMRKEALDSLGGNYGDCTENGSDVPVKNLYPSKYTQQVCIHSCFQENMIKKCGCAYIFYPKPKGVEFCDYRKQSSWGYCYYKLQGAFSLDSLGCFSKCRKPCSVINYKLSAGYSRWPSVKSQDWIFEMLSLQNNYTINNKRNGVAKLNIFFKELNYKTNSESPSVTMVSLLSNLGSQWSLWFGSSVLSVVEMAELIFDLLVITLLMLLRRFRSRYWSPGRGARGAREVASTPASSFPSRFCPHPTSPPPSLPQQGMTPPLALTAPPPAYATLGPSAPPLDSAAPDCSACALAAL
T1 sequence (P37090 1-638): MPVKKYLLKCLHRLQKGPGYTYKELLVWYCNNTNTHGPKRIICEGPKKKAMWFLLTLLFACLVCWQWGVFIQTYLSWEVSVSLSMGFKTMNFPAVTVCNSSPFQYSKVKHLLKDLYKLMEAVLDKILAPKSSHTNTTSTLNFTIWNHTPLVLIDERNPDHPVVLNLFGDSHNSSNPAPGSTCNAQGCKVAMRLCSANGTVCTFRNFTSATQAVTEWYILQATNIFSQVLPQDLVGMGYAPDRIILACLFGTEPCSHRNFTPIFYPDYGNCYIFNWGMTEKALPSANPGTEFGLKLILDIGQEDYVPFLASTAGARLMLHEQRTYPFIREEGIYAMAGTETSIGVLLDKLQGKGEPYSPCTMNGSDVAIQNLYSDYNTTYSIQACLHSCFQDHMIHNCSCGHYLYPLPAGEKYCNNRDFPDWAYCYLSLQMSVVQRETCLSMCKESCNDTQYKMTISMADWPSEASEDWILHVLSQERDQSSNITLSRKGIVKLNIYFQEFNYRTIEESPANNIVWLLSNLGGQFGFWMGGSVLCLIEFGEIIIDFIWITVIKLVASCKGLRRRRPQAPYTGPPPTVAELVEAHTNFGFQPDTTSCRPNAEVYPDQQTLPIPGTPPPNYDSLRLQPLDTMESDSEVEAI
T1 sequence (P37091 1-650): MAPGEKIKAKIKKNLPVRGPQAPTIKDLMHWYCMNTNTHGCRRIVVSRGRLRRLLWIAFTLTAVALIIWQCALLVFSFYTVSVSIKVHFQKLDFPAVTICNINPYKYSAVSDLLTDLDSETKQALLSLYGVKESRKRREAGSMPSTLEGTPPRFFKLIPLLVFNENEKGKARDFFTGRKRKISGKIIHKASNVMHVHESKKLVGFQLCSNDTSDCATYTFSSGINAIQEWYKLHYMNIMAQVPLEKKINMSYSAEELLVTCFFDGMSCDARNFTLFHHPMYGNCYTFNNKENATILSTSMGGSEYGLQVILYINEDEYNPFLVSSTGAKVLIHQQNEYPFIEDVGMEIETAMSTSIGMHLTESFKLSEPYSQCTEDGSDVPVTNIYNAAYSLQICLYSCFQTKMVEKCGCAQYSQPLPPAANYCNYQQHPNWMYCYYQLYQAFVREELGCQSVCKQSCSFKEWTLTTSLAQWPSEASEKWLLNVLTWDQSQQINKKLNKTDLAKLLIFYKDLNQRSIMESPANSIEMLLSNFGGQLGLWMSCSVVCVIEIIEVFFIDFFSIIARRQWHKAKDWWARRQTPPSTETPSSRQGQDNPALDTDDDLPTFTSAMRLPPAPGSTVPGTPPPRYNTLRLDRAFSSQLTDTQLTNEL

B1: SPLUNC1: human SPLUNC1, 256 amino acid secreted PLUNC protein (SEQ ID NO:1); rSPLUNC1 = V5/6His-tagged protein purified from HEK293 media (protein, listed as Homo sapiens)
chain: MFQTGGLIVFYGLLAQTMAQFGGLPVPLDQTLPLNVNPALPLSPTGLAGSLTNALSNGLLSGGLLGILENLPLLDILKPGGGTSGGLLGGLLGKVTSVIPGLNNIIDIKVTDPQLLELGLVQSPDGHRLYVTIPLGIKLQVNTPLVGASLLRLAVKLDITAEILAVRDKQERIHLVLGDCTHSPGSLQISLLDGLGPLPIQGLLDSLTGILNKVLPELVQGNVCPLVNEVLRGLDITLVHDIVNMLIHGLQFVIKV
modifications: V5/6His tag
notes: rSPLUNC1 = V5/6His-tagged protein purified from HEK293 media

Biological target: T1, αβγENaC
Experiment: Amiloride-sensitive whole cell current in Xenopus laevis oocytes expressing ENaC (two electrode voltage clamp)
Assay type: cell-based
Procedure: Oocyte studies. Xenopus laevis oocytes were harvested and injected as described (Donaldson, et al., J. Biol. Chem. 277:8338 (2002)). Defolliculated healthy stage V-VI oocytes were injected with 0.3 ng of cRNA of each ENaC subunit. Injected oocytes were kept in modified Barth's saline (in mM: 88 NaCl, 1 KCl, 2.4 NaHCO3, 0.3 Ca(NO3)2, 0.41 CaCl2, 0.82 MgSO4, and 15 HEPES, adjusted to pH 7.35 with Tris). Oocytes were studied 24 hr after injection using the two electrode voltage clamp technique as previously described (Donaldson, et al., J. Biol. Chem. 277:8338 (2002)). Oocytes were clamped at a holding potential of […]. The change in amiloride-sensitive whole cell current as an indicator of ENaC activity was determined by subtracting the corresponding current value measured in the presence of 10 μM amiloride from that measured before the application of amiloride.

Row | Molecule | ENaC activity on trypsin exposure (oocytes) | ability of CAP1 and CAP2 to activate ENaC (ENaC ± SPLUNC1 co-expressed with prostasin (CAP1) and CAP2) | inhibition of ENaC by full-length and truncated SPLUNC1 (oocyte current inhibition assay, pH 7.4, all p<0.0001) | trypsin stimulation of ENaC activity (trypsin-exposed oocytes ± SPLUNC1)
1 | trypsin [reference compound] | increased ENaC activity | – | – | –
2 | B1 | – | significantly reduced | Significant inhibition | attenuated
